Laboratory results taken from patent publication US6835378B2, “Method and compositions for inhibiting thrombin-induced coagulation” (The Texas A&M University System University, priority 2001, dated 2004).
“Also recorded” adds a separate entry of the source.

Legend:
[1] = system: thrombin-induced fibrin clot formation; assay: Fg coagulation assay (fibrin clot inhibition); format: biochemical; conditions: 3.0 μM Fg, 0-6.0 μM protein, 1.0 NIH unit/ml thrombin, OD 405 nm
Procedure: Fg Coagulation Assay—150 μl of a 3.0 μM Fg solution was incubated with 10 μl of rSdrG(50-597) or BSA (1.0-6.0 μM) and 50 μl of thrombin (Sigma) (1.0 NIH unit/ml) in microtiter wells at room temperature. Clot formation was monitored by measuring the increase in optical density (OD) at 405 nm over time and expressed as Vmax (mOD/min). A plate reader (Thermomax microplate reader, SOFTmax software, Molecular Devices) was used to monitor OD. Using the kinetic mode with one wavelength (L1=405 nm), samples were read every 10 sec for 5 min. In this assay, 1.0 NIH unit/ml of thrombin incubated with 3.0 μM Fg produced a fibrin clot in 5 min at room temperature.
rSdrG(50-597) Inhibits Thrombin-Induced Fibrin Clot Formation—In the final stages of the blood coagulation cascade, thrombin cleaves Fg releasing the fibrinopeptides and producing fibrin monomers. These fibrin monomers then polymerize to form a fibrin clot (20). […] To test this hypothesis, we designed a fibrin clot inhibition assay in which 3.0 μM Fg, 0-6.0 μM rSdrG(50-597) and 1.0 NIH unit/ml of thrombin were incubated and the formation of a fibrin clot was monitored by measuring the increase in optical density at 405 nm.

[2] = system: Serine protease-digested Fg; assay: ELISA with serine protease-treated immobilized Fg; format: binding, human; conditions: 30 min at room temperature
Procedure: Fg coated microtiter wells were pretreated for 30 min at room temperature with ancrod (•), PBS (untreated) (▾), thrombin (♦) or contortrixobin (▪). Plates were blocked, washed and incubated with a serine protease inhibitor (1 NIH unit/ml hirudin for thrombin and 100 μg/ml PMSF for ancrod and contortrixobin). Biotin labeled rSdrG(50-597) (25-1000 nM) was incubated in the wells for 1 h at room temperature. Values represent the mean±standard deviation of triplicate wells.
The A[…] chain may interfere with rSdrG(50-597) binding to the Bβ chain and this observation may be due to the absence of FpA, thus making the N-terminus of the Bβ chain more easily accessible.

[3] = biological target: Fg Bβ chain peptide β1-25 (Homo sapiens, UniProt P02675); conditions: read-out: KD for interaction with peptide β1-25; 10 nM fluorescein-labeled β1-25, 3 h, room temperature
Procedure: Fluorescence Polarization—Fluorescence polarization was used to determine the equilibrium dissociation constant (KD) for the interaction of rSdrG(50-597) with peptide β1-25. The peptide was labeled with fluorescein as previously described (18). Increasing concentrations of rSdrG(50-597) in PBS, pH 7.5, were incubated with 10 nM labeled peptide for 3 h in the dark at room temperature. Reactions were allowed to reach equilibrium. Polarization measurements were taken with a Luminescence Spectrometer LS50B (Perkin Elmer) using FL WinLab software (Perkin Elmer). Binding data was analyzed by nonlinear regression used to fit a binding function as defined by the following equation: [formula]

Fg Bβ chain peptide β1-25, sequence (P02675 31-55 limits assumed): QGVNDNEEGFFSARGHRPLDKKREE

B1: rSdrG(50-597): recombinant His-tagged A region (residues 50-597) of SdrG, a fibrinogen-binding MSCRAMM from S. epidermidis (protein)
chain: HHHHHHAEENTVQDVKDSNMDDELSDSNDQSSNEEKNDVINNSQSINTDDDNQIKKEETNSNDAIENRSKDITQSTTNVDENEATFLQKTPQDNTQLKEEVVKEPSSVESSNSSMDTAQQPSHTTINSEASIQTSDNEENSRVSDFANSKIIESNTESNKEENTIEQPNKVREDSITSQPSSYKNIDEKISNQDELLNLPINEYENKVRPLSTTSAQPSSKRVTVNQLAAEQGSNVNHLIKVTDQSITEGYDDSDGIIKAHDAENLIYDVTFEVDDKVKSGDTMTVNIDKNTVPSDLTDSFAIPKIKDNSGEIIATGTYDNTNKQITYTFTDYVDKYENIKAHLKLTSYIDKSKVPNNNTKLDVEYKTALSSVNKTITVEYQKPNENRTANLQSMFTNIDTKNHTVEQTIYINPLRYSAKETNVNISGNGDEGSTIIDDSTIIKVYKVGDNQNLPDSNRIYDYSEYEDVTNDDYAQLGNNNDVNINFGNIDSPYIIKVISKYDPNKDDYTTIQQTVTMQTTINEYTGEFRTASYDNTIAFSTSSGQGQGDLPPE
- fibrin clot formation [1]: inhibited fibrin clot formation in a concentration dependent manner
- fibrin clot formation ([1]; listed as SdrG): inhibit thrombin-induced fibrinogen coagulation
- binding to Fg treated with contortrixobin [2]: could not bind; also recorded: not able to bind
- binding to Fg treated with thrombin [2]: could not bind
- binding to Fg treated with ancrod ([2]; versus untreated Fg): bind better; also recorded: still able to bind
- Kd [3]: 140 nM
